Source: article PMC7572768 (Biochemistry, 2020)
Positions count from the first letter of the chain named. Values belong to the binder of their own block, whether it stands above or below them.

Assays:
Assay in all cases: ELISA
cdMMP-14 N231A = cdMMP-14 N231A (Homo sapiens, UniProt P50281, N231A)
cdMMP-14 F198A = cdMMP-14 F198A (Homo sapiens, UniProt P50281, F198A)
[1] = target: cdMMP-14 P259 alanine mutant (Homo sapiens, UniProt P50281, P259 to Ala)
cdMMP-14 F260A = cdMMP-14 F260A (Homo sapiens, UniProt P50281, F260A)

- fold weakening of IC50 against cdMMP-14 wt (cdMMP-14 N231A): 14 fold
B1: Fab 2B5 (Fab, V domains shown)
VH: EVQLVESGGGLVQPGGSLRLSCAASGFNLSYSSMHWVRQAPGKGLEWVASIYPYSGYTYYADSVKGRFTISADTSKNTAYLQMNSLRAEDTAVYYCARIGVNAWAVKMSQRMLATRGSGWYVMDYWGQGTLVTVSS
VL: DIQMTQSPSSLSASVGDRVTITCRASQSVSSAVAWYQQKPGKAPKLLIYSASSLYSGVPSRFSGSRSGTDFTLTISSLQPEDFATYYCQQSSSYPYSPITFGQGTKVEIK

- IC50 (cdMMP-14 F198A): > 900 nM
- IC50 [1]: > 900 nM
B2: Fab 3E2 (Fab, V domains shown)
VH: EVQLVESGGGLVQPGGSLRLSCAASGFNIYYYSIHWVRQAPGKGLEWVASIYPYSSYTYYADSVKGRFTISADTSKNTAYLQMNSLRAEDTAVYYCARGIKGLVFTGSQMKMLRRGNYNWYVMDYWGQGTLVTVSS
VL: DIQMTQSPSSLSASVGDRVTITCRASQSVSSAVAWYQQKPGKAPKLLIYSASSLYSGVPSRFSGSRSGTDFTLTISSLQPEDFATYYCQQSSYSLITFGQGTKVEIK

- fold increase in IC50 against cdMMP-14 wt (cdMMP-14 F260A): 33 fold
B3: Fab 3E9 (Fab, V domains shown)
VH: EVQLVESGGGLVQPGGSLRLSCAASGFNLYYSSMHWVRQAPGKGLEWVASIYPSYGSTYYADSVKGRFTISADTSKNTAYLQMNSLRAEDTAVYYCARNGRYPGFLKRAHKRLLNFKAYVMDYWGQGTLVTVSS
VL: B2 VL with S91G, Y93W, S94Y
